According to patent publication USH1453H, “N-acetyl-D-glucosamine deacetylase and a process for preparing the same” (priority 1993, dated 1995):

How the values were obtained:
Optimal pH of the enzyme = assay type: biochemical; settings: at 37° C.; indole-HCl method at pH 5.6-10.8
Protocol: The optimal pH of the enzyme of the present invention varies widely depending on the origin of the microorganism used to produce the enzyme, but usually in the range of about 4.0-9.0. For example, the optimal pH of the enzyme derived from Vibrio sp. is in the range of 7.8-8.2 as determined colorimetrically according to indole-HCl method at pH 5.6-10.8. The buffer solution used at pH 5.6-6.0 is 100 mM CH3 COOH--CH3 COONa, at pH 6.0-9.0, 100 mM […] -Na2 HPO4 is used, and at pH 9.6-10.8, 200 mM Na2 HPO4 -NaOH is used.

Stable pH of the enzyme = assay type: physicochemical; settings: not less than 50% of initial activity retained, determined at 37° C. after incubation at 45° C. for 30 minutes
Protocol: The stable pH wherein not less than 50% of the initial activity of the enzyme is retained, as determined at 37° C. after incubation in a given buffer at 45° C. for 30 minutes, varies depending on the origin of the microorganism used to produce the enzyme, but usually ranges from about 3.0 to 9.0. For example, the stable pH of the enzyme derived from Vibrio sp. is in the range of about 6.0-9.0.

[1] = Determination of the enzymatic activity (D-glucosamine formed, indole-HCl colorimetry); assay type: biochemical; settings: 37° C.; for specific activity: pH 7.8
Protocol: An enzyme solution (0.1 ml) is added to 0.3 ml of 100 mM phosphate buffer (pH 7.8) containing 0.1 ml of 1% N-acetyl-D-glucosamine as a substrate, and the resultant mixture is incubated at 37° C. for 30 minutes. The amount of D-glucosamine formed is determined colorimetrically using indole-HCl according to the method of Z. Dische and E. Borenfreund [J. Biol. Chem., 184:517 (1950)]. One unit of the enzyme is defined as the amount of the enzyme which is capable of producing 1 μmol D-glucosaminefrom N-acetyl-D-glucosamine per minute at 37° C.

Mucor sp. = settings: method using a microorganism belonging to Mucor sp.; cited from earlier work
[2] = biological target: N-acetyl-D-glucosamine deacetylase (Vibrio cholerae, UniProt O32445); assay: Substrate specificity of the enzyme; assay type: biochemical, Vibrio cholerae non-01 (IFO 15429); settings: substrate 0.2%, 37° C., pH 7.8, one hour
Sequence of N-acetyl-D-glucosamine deacetylase (O32445 whole entry): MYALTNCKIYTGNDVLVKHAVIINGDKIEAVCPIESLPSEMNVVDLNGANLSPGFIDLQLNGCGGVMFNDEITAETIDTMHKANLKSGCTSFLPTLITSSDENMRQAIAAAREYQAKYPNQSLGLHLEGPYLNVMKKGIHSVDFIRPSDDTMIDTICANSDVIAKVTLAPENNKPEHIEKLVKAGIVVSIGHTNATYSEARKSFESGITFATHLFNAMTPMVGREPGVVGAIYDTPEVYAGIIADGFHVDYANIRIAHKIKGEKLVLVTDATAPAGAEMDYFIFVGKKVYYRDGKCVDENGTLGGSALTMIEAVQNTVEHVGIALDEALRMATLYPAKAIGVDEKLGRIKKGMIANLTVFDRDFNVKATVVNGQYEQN

Compound: N-acetyl-D-glucosamine deacetylase
- Optimal pH (Optimal pH of the enzyme): 7.8-8.2
- Stable pH (Stable pH of the enzyme): 6.0-9.0
- specific activity ([1]; listed as enzyme): 1.22 unit/mg protein
- specific activity ([1]; listed as purified enzyme): 1.22 U/mg protein
- Spec. Act. ([1]; Table 1, per purification step, pH 7.8, 30 minutes): 1.22 Unit/mg

Compound: (GlcNAc)5
- deacetylated to the extent of (Mucor sp.): 12-14%

Compound: CC(=O)N[C@H]1C(O)O[C@H](CO)[C@@H](O)[C@@H]1O (stereo partly drawn) [GlcNAc, N-acetyl-D-glucosamine]
- Enzymatic Activity [2]: 1.22 Unit/mg
- formation of D-glucosamine [2]: can be observed
